# Measured values reported in article PMC4058081, “p600 regulates spindle orientation in apical neural progenitors and contributes to neurogenesis in the developing neocortex” (Biology Open, 2014).
# B1: Ndel1^1–201 (coiled-coil region of Ndel1) (domain or fragment, UniProt Q9GZM8 1-201, looked up)
# chain: MDGEDIPDFSSLKEETAYWKELSLKYKQSFQEARDELVEFQEGSRELEAELEAQLVQAEQRNRDLQADNQRLKYEVEALKEKLEHQYAQSYKQVSVLEDDLSQTRAIKEQLHKYVRELEQANDDLERAKRATIVSLEDFEQRLNQAIERNAFLESELDEKESLLVSVQRLKDEARDLRQELAVRERQQEVTRKSAPSSPTL
# notes: Dimeric in solution by static light scattering (data not included); also called N-terminal coiled-coil domain of Ndel1; source: E. coli BL21-Rosetta, purified (Ni-NTA, ion exchange)
# Tests used:
# [1] = biological target: the molecule itself; assay: static light scattering; Ndel1^1–201 alone in solution; data not included
# [2] = biological target: T1, recombinant p600^4480–5183 (human, UniProt Q5T4S7 4480-5183); assay: SEC; analytical SEC, Superdex 200 5/150, 4°C, 10 mM HEPES pH 7.5, 0.15 M NaCl, 1 mM DTT; proteins alone or mixed at 50 µM and incubated 30 min on ice; fractions analysed by SDS-PAGE; conditions: both partners purified
# T1 construct: Elutes mostly as a monomer (~75 kDa) in SEC; also called C-terminal portion of p600; source: E. coli BL21-Rosetta, purified (glutathione sepharose, PreScission cleavage, Resource Q)
# T1 sequence (Q5T4S7 4480-5183): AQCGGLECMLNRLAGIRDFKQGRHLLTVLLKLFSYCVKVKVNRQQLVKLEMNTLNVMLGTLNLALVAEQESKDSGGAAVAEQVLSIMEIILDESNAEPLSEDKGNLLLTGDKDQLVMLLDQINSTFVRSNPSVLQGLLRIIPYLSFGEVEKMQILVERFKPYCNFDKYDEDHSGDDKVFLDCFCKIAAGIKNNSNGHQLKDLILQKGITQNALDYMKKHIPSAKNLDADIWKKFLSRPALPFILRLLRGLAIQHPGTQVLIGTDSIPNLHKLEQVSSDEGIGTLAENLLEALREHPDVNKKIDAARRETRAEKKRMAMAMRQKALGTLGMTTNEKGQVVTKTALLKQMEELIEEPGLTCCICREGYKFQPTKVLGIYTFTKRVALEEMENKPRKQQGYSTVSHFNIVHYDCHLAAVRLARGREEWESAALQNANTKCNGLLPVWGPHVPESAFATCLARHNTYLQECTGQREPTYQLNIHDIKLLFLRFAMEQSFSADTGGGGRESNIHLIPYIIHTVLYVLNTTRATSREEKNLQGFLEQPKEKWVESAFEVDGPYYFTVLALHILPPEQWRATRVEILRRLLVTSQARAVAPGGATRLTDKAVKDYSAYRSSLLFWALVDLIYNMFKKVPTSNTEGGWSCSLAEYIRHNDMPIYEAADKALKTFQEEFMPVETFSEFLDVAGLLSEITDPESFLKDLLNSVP
binder,measurement,setting,value
B1,stoichiometry N,[1],2
same,Kd,[2],30 to 50 µM
